Drawing on US20190144537A1, this text covers Kd for two molecules.

Changes are numbered by the printed parent chain.

The test deals with cynoNotch3 monomer (cyno). Nature of the test: binding to cynoNotch3 monomer at 25° C., protocol similar to that for hNotch3 (method not named).

In general, Kd refers to the equilibrium constant for the complex coming apart. The low end stands for tighter binding, the high end for weaker binding.

B1: 28042.1 antibody (antibody, human IgG1, kappa, V domains shown)
VH: EVQLLESGGGLVQPGGSLRLSCAASGFTFSDYMMSWVRQAPGKGLEWVSWIRSSGGTTLYADSVKGRFTISRDNSKNTLYLQMNSLRAEDTATYYCARVGGGTTGYAFDIWGQGTMVTVSS
VL: DIQMTQSPSSLSASVGDRVTITCRASQSISSYLNWYQQKPGKAPKLLIYGASSLQSGVPSRVSGTGSGTDFTLTISSLQPEDFATYYCQQSYSPSFTFGPGTKVDFER
Molecule B1 gave a Kd of 5.35 nM.

B2: 28042.2 antibody (antibody, human IgG1, kappa, V domains shown)
VH: B1 VH
VL: B1 VL with S31N, G50A
The molecule B2 came in with a Kd of 214 nM. This Kd lies about 40-fold higher than the previous one.
